Experimental data from article PMC3075957 (Nature structural & molecular biology, 2011).

Tests used:
K2Q23K2 [1] = experiment: seeded elongation kinetics
K2Q23K2 [2] = experiment: sedimentation assay with HPLC
K2Q23K2 [3] = experiment: sedimentation assay with HPLC of the supernatant
K2Q23K2 [4] = target: K2Q23K2
[5] = Electron microscopy of end-stage aggregates; type: physicochemical; details: PBS 37 °C, uniform smooth-sided fibrils
[6] = Aggregation time course by HPLC sedimentation assay; type: physicochemical; details: comparable concentrations, PBS 37 °C
[7] = Dynamic light scattering of aggregation reactions; type: physicochemical; details: 166 μM, PBS 37 °C, different incubation times
[8] = target: the molecule itself; experiment: sedimentation assay with HPLC of the supernatant

In the case of K2Q23K2 (peptide), the kon (K2Q23K2 [1]) is reported as 12400 M⁻¹ s⁻¹, the critical concentration (Cr) of monomer in equilibrium with fibrils (K2Q23K2 [2]) is reported as 3 µM and the n* (critical nucleus size of aggregation) (K2Q23K2 [3]) is reported as 3.9. For the same molecule, the nucleation equilibrium constant Kn* (monomers to tetrameric nucleus) (K2Q23K2 [3]) was 0.076 l^3/mol^3, the percent aggregation (215 μM, 27 hrs) (K2Q23K2 [3]) was 5% and the loss of monomer within two hours (215 μM) (K2Q23K2 [4]) was under 1%.

B1: AT7^NTQ30K2: peptide consisting of the AT7^NT sequence (29 amino acid N-terminus of ataxin-7) followed by a Q30K2 sequence (peptide)
peptide: MSERAADDVRGEPRRAAAAAGGAAAAAARQQQQQQQQQQQQQQQQQQQQQQQQQQQQQQKK
With B1 the “Fibril diameter by electron microscopy” value [5] was about 10 nm, the “Aggregation rate compared with K2Q30K2” value [6] was “aggregates somewhat slower than K2Q30K2” and the “Aggregate formation by DLS versus sedimentation assay” value [7] was “no aggregate formation that was not detected by the sedimentation assay”.

B2: SFQ37P10K2 (peptide)
peptide: SFQQQQQQQQQQQQQQQQQQQQQQQQQQQQQQQQQQQQQPPPPPPPPPPKK
In the case of B2, the “n* (critical nucleus size of aggregation)” value [8] is reported as 1.

In the case of KKQQQQQQQQQQQQQQQQQQQQQQQQQKK [K2Q25K2], the “n* (critical nucleus size of aggregation)” value [8] is reported as 2.

In the case of KKQQQQQQQQQQQQQQQQQQQQQQQQKK [K2Q24K2], the “n* (critical nucleus size of aggregation)” value [8] is reported as 3.3.

In the case of KKQQQQQQQQQQQQQQQQQQQQQQQQQQQQQQQQQQQQQKK [K2Q37K2], the “n* (critical nucleus size of aggregation)” value [8] is reported as 0.7.
